Assays:
HeLa cells = assay: MTT viability of Dox-treated HeLa cells transfected with HMGA2 constructs; format: cell-based; conditions: transient transfection, Dox for 72 hours
Method: FIG. 19: Correlation between HMGA2 binding of Ku80 and chemosensitization towards Dox. HeLa cells were transfected with individual HMGA2 wild type and engineered constructs and allowed to recover overnight prior to reseeding for cell viability assay. Cells were treated with Dox for 72 hours and followed by MTT assays. ** denotes p<0.01.
To elucidate the relevance of HMGA2 complex formation with Ku80/Ku70, the viability of Dox-treated HeLa cells transfected with HMGA2 or its engineered mutants was examined. […] The augmented resistance to Dox, relative to that of vector-transfected HeLa cells, by HMGA2(Δ83-109) and HMGA2(4P/A) mutants may be due to protein-protein interactions arising from the remaining portion of HMGA2.

[1] = system: NHEJ in Hela and Hela/HMGA2 cells; assay: Plasmid end-joining assay (pGL2 luciferase); format: cell-based
Method: A previously reported plasmid end-joining assay (Zhong 2002) was conducted on a transiently transfected, linearized pGL2 reporter construct to determine the potential role of HMGA2 in NHEJ. The pGL2 plasmid (FIG. 8A, upper panel) was digested with either EcoRI or HindIII, verified by agarose gel electrophoresis, and purified using a Qiagen Gel Extraction kit (Qiagen, Calif.). Equal amounts of the linearized plasmid or the undigested pGL2 plasmid were transfected into Hela and Hela/HMGA2 cells together with an internal control pRL-TK luciferase plasmid using Lipofectamine 2000 (Invitrogen, CA). Transfected cells were treated with Dox or diluent for various time periods. Luciferase activity was measuring using Promega Dual-Glo Luciferase Assay (Promega, Wis.) and normalized with internal control (Renilla luciferase activity). The percentage of DNA end-joining was calculated by dividing the relative luciferase units of digested pGL2 by that of undigested pGL2.

Ku70 = assay: In vitro pull-down with His-tagged HMGA2; format: binding; conditions: bacteria-expressed His-tagged HMGA2 as bait
Method: Ku70/Ku80 proteins were individually translated in vitro using rabbit reticulocyte lysates of the TNT Quick Coupled Transcription/Translation Systems with Transcend Chemiluminescent detection system (Promega, Wis.). 500 μl of the overnight culture of pET21 b-His-HMGA2 in LB media supplemented with 0.1 mg/ml ampicillin was repopulated in 10 ml LB media supplemented with ampicillin. The bacterial culture was grown at 37° C. with shaking (225 rpm) until OD600 reached 0.5-0.7, at which point 1 mM IPTG was added to the bacterial culture to induce protein expression. After 3 hours, proteins were harvested by lysing the bacteria with 1 ml of Fast-Break Lysis Buffer (Promega, Wis.). 100 μl of the lysed bacteria was added to 30 μl of MagZ particles (Promega, Wis.) and incubated for 15 minutes at room temperature. A magnetic stand was used to capture the MagZ particles while the supernatant was carefully removed. MagZ particles were washed three times with MagZ Bind/Wash buffer (Promega, Wis.). After the final wash, the particles were resuspended in 175 μl of MagZ Bind/Wash buffer. 20 μl of TNT translated Ku70/Ku80 reactions were added to the mixture, respectively, and incubated for 1 hour at room temperature on a shaker. The mixture was washed three times with MagZ Bind/Wash buffer and the bound proteins were eluted with 1% SDS. […]

[2] = system: endogenous DNA damage in PA-4 and PA-4/HMGA2 cells; assay: Comet assay; format: cell-based; conditions: HMGA2-expressing versus HMGA2-underexpressing Pa-4 cells
Method: A Comet assay (Collins 2004) was conducted to determine if HMGA2-expressing cells accumulate more DNA lesions than non-HMGA2-expressing cells prior to Dox treatment. The assay was carried out according to manufacturer protocol (Trevigen, Md.). Briefly, adherent PA-4 and PA-4/HMGA2 cells were washed and resuspended in ice-cold PBS at 1×10^5 cells/ml before being diluted in low melting point agarose and spread onto CometSlide (Trevigen, Md.). Cells were lysed in pre-chilled Lysis Solution at 4° C. for 60 minutes and denatured with alkaline solution (12 mg/ml NaOH, 1 mM EDTA, pH>13), followed by electrophoresis at 25 V for 40 minutes. DNA was stained with SYBR green (Molecular Probes, Oreg.) and visualized using a Zeiss LSM 510 fluorescent microscope. DNA damage was quantified and scored by Olive Trail Moment using CometScore analyses software (TriTek Corp., VI).

B1: HMGA2: High-mobility group A2 protein, non-histone architectural transcription factor, expressed from pcDNA3.1/HA-HMGA2 or as His-tagged protein (protein, UniProt P52926 2-109, looked up)
High mobility group protein …: SARGEGAGQPSTSAQGQPAAPAPQKRGRGRPRKQQQEPTGEPSPKRPRGRPKGSKNKSPSKAAQKKAEATGEKRPRGRPRKWPQQVVQKKPAQEETEETSSQESAEED
modifications: HA or His tag
- sensitivity of transfected HeLa cells to Dox (HeLa cells): increased their sensitivity towards Dox
- decrease in error-free end-joining activity ([1]; EcoRI-digested pGL2, stable HMGA2 expression): ≤ 2 fold
- decrease in overall end-joining activity ([1]; HindIII-digested pGL2, stable HMGA2 expression): up to 5 fold
- pull-down of in vitro translated Ku70 (Ku70): bound to a lesser extent
- increase in endogenous DNA damage (Olive Tail moment) [2]: approximately two-fold
